Measurements published in article PMC8167871, “Three‐dimensional structures of avian beta‐microseminoproteins: insight from the chicken egg‐specific beta‐microseminoprotein 3 paralog” (FEBS Open Bio, 2021).

Target: the molecule itself
Assay: MALDI-TOF mass spectrometry; top-down analysis of purified MSMB3 without any reduction or alkylation

B1: chicken beta-microseminoprotein 3 (MSMB3), proteoform lacking the C-terminal glycine, MSMB3(-G) (natural protein, chicken (Gallus gallus))
chain: RCYFRTSSKYGCISNRNLYVFGAVWKTEDCYQCKCKMNAMVCCSLVSIPKNYDRVNCVGLFHKKSCSIRVVKKTDPDISCKVYNGV
modifications: five disulfide bridges (C2-C43, C12-C35, C30-C66, C33-C42, C57-C80); delta mass of -1 Da on two lysines, especially K63 (potential oxidation of the lysine residue)
notes: chicken (Gallus gallus) MSMB3, mature protein without its C-terminal G87 (major proteoform of the purified sample, residues 1-86); numbers count on: the mature protein; The dimer seen by mass spectrometry and the crystal structure are of MSMB3(-G); the NMR sample is called only MSMB3; also called Gga-MSMB3; Gga-MSMB3 without G
For B1, the “stoichiometry N” value was 2.
